The record followed here is PMC7083938, “NELL2-Robo3 complex structure reveals mechanisms of receptor activation for axon guidance” (Nature Communications, 2020).

Data set [1] concerns the molecule itself. The data set is described as follows: AUC; sedimentation velocity, concentration series (mRobo3 0.6-20 µM at 200,000 g; mRobo1 0.9-9.8 µM at 140,000 g), 20 °C, c(s) analysis.
Data set [2] has as its target T1, hRobo3 FN1-3 displayed on S2 cells (human, UniProt Q96MS0 549-870).
T1 construct: human Robo3, FN domains 1-3, P549-L870; also called Robo3FN1-3 WT (Actin 5C, C-terminal FLAG); source: Drosophila S2 cells, transiently transfected, on the cell surface; not shown: FLAG, C-terminal, kept; transmembrane helix of rat Neurexin-1, C-terminal, kept
T1 sequence (looked up): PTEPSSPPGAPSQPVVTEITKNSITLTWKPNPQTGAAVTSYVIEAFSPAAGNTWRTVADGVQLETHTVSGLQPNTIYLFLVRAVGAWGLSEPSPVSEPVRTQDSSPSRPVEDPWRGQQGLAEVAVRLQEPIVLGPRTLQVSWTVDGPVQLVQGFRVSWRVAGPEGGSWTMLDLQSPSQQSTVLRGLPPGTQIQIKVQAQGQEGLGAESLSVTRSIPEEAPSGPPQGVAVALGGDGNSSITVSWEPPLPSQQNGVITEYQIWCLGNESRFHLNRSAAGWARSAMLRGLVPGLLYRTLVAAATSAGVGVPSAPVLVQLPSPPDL
Put plainly: flow cytometry on cells; biotinylated ligand at various concentrations, 30 min at 4 °C in PBS + 0.1% BSA, on Drosophila S2 cells displaying the partner (C-terminal FLAG, rat Neurexin-1 transmembrane helix); Cy5-streptavidin; gated on anti-FLAG positive cells; MFI fit to a single-site model; apparent KD. The note with it: one partner purified.

Data set [3] concerns the target T2, hRobo3 FN1-3, biotinylated (wild type) (human, UniProt Q96MS0 549-870, biotin on the Avi-tag (BirA)).
T2 construct: human Robo3, FN domains 1-3, P549-L870; also called WT hRobo3 FN; Robo3FN1-3 WT; source: High Five cells (baculovirus), purified (Ni-NTA, SEC), biotinylated with BirA
T2 sequence (looked up): T1 sequence (looked up)
The data set is described as follows: SPR; biotinylated hRobo3 FN1-3 on an SA chip, Biacore 3000; hNELL1 EGF1-3 or hNELL2 EGF1-3 as analyte; equilibrium isotherms. To be noted: both partners purified.

The target of data set [4] is T2, hRobo3 FN1-3, biotinylated (wild type). Put plainly: SPR; as a6 but with additional 10 mM EDTA in all buffers. To be noted: both partners purified.
The next data set deals with T3, mRobo3 FN1-3 (mouse, biotin on the Avi-tag (BirA) for SPR).
T3 construct: also called Robo3FN1-3 (Polyhedrin, mouse); source: High Five cells (baculovirus), purified (Ni-NTA, SEC); biotinylated with BirA for SPR; not shown: His6, C-terminal, kept
The data set is described as follows: SPR; biotinylated mRobo3 FN1-3 on a Biacore SA chip; mNELL2 EGF1-6 WT and mutants as analytes over the same channel; 20 s 10 mM EDTA pH 8, 150 mM NaCl between runs; 25 °C, 10 mM HEPES pH 7.2, 150 mM NaCl, 0.05% Tween-20, 0.1% BSA; equilibrium, 1:1 Langmuir. To be noted: both partners purified.

In data set [5] the target is T2, hRobo3 FN1-3, biotinylated (wild type). The data set is described as follows: SPR; biotinylated hRobo3 FN1-3 on an NLC/neutravidin chip, ProteOn XPR36; hNELL2 EGF1-6 as analyte; 25 °C, 10 mM HEPES pH 7.2, 150 mM NaCl, 0.05% Tween-20, 0.1% BSA; equilibrium responses, 1:1 Langmuir. To be noted: both partners purified.
Data set [6] concerns the molecule itself. Put plainly: SEC-MALS; Wyatt HELEOS II coupled to an AKTA FPLC, Superose Increase 6 10/300, HBS; Zimm model.

B1: mRobo1 ectodomain (domain or fragment, mouse, UniProt O89026 30-840, looked up)
chain: RIVEHPSDLIVSKGEPATLNCKAEGRPTPTIEWYKGGERVETDKDDPRSHRMLLPSGSLFFLRIVHGRKSRPDEGVYICVARNYLGEAVSHNASLEVAILRDDFRQNPSDVMVAVGEPAVMECQPPRGHPEPTISWKKDGSPLDDKDERITIRGGKLMITYTRKSDAGKYVCVGTNMVGERESEVAELTVLERPSFVKRPSNLAVTVDDSAEFKCEARGDPVPTVRWRKDDGELPKSRYEIRDDHTLKIRKVTAGDMGSYTCVAENMVGKAEASATLTVQEPPHFVVKPRDQVVALGRTVTFQCEATGNPQPAIFWRREGSQNLLFSYQPPQSSSRFSVSQTGDLTITNVQRSDVGYYICQTLNVAGSIITKAYLEVTDVIADRPPPVIRQGPVNQTVAVDGTLILSCVATGSPAPTILWRKDGVLVSTQDSRIKQLESGVLQIRYAKLGDTGRYTCTASTPSGEATWSAYIEVQEFGVPVQPPRPTDPNLIPSAPSKPEVTDVSKNTVTLSWQPNLNSGATPTSYIIEAFSHASGSSWQTAAENVKTETFAIKGLKPNAIYLFLVRAANAYGISDPSQISDPVKTQDVPPTSQGVDHKQVQRELGNVVLHLHNPTILSSSSVEVHWTVDQQSQYIQGYKILYRPSGASHGESEWLVFEVRTPTKNSVVIPDLRKGVNYEIKARPFFNEFQGADSEIKFAKTLEEAPSAPPRSVTVSKNDGNGTAILVTWQPPPEDTQNGMVQEYKVWCLGNETKYHINKTVDGSTFSVVIPSLVPGIRYSVEVAASTGAGPGVKSEPQFIQLDSHGNPVS
notes: mouse Robo1, extracellular domain, R30-S840; C-terminal Avi and His; also called mRobo1 ECD; Robo1ECD; source: High Five cells (baculovirus), purified (Ni-NTA, SEC)
As to B1, the “stoichiometry N” value in data set [1] is 2.

B2: hNELL2 EGF1-6, biotinylated (wild type) (domain or fragment)
chain: not shown
modifications: biotin on the Avi-tag (BirA)
notes: human NELL2, EGF domains 1-6, G397-T637; also called WT hNELL2 EGF; NELL2EGF1-6 WT; source: High Five cells (baculovirus), purified (Ni-NTA, SEC), biotinylated with BirA
Turning to B2, the Kd in data set [2] amounted to 770 nM.

B3: hNELL2 EGF1-6 V509A, biotinylated (domain or fragment)
chain: not shown
modifications: biotin on the Avi-tag (BirA)
notes: human NELL2, EGF domains 1-6, G397-T637; source: High Five cells (baculovirus), purified, biotinylated with BirA (general methods)
Consider B3, for which the Kd in data set [2] turned out to be 1500 nM.

B4: hNELL2 EGF1-6 R452A, biotinylated (domain or fragment)
chain: not shown
modifications: biotin on the Avi-tag (BirA)
notes: as for B3
As to B4, in data set [2], the Kd came out at 1100 nM.

B5: hNELL2 EGF1-6 D476A, biotinylated (domain or fragment)
chain: not shown
modifications: biotin on the Avi-tag (BirA)
notes: as for B3
Consider B5, for which the Kd in data set [2] was about 50000 nM.

B6: hNELL2 EGF1-6 R448A/Y450A, biotinylated (domain or fragment)
chain: not shown
modifications: biotin on the Avi-tag (BirA)
notes: as for B3
As to B6, the Kd in data set [2] was 9000 nM.

B7: hNELL2 EGF1-6 L498A/F500A, biotinylated (domain or fragment)
chain: not shown
modifications: biotin on the Avi-tag (BirA)
notes: as for B3
Regarding B7, the Kd in data set [2] was at least 100000 nM.

B8: hNELL2 EGF1-6 D477A/Y478A, biotinylated (domain or fragment)
chain: not shown
modifications: biotin on the Avi-tag (BirA)
notes: as for B3
As to B8, the Kd in data set [2] was at least 100000 nM.

B9: hNELL2 EGF1-3 (domain or fragment, human, UniProt Q99435 397-523, looked up)
chain: GYDFCSERHNCMENSICRNLNDRAVCSCRDGFRALREDNAYCEDIDECAEGRHYCRENTMCVNTPGSFMCICKTGYIRIDDYSCTEHDECITNQHNCDENALCFNTVGGHNCVCKPGYTGNGTTCKA
notes: human NELL2, EGF domains 1-3, G397-A523; also called NELL2EGF1-3 (Polyhedrin, human); source: High Five cells (baculovirus), purified (Ni-NTA, SEC)
On to B9, for which the Kd in data set [3] amounted to 250 nM; in data set [4] it was 790 nM.

B10: mNELL2 EGF1-6 D477A/Y478A (domain or fragment)
chain: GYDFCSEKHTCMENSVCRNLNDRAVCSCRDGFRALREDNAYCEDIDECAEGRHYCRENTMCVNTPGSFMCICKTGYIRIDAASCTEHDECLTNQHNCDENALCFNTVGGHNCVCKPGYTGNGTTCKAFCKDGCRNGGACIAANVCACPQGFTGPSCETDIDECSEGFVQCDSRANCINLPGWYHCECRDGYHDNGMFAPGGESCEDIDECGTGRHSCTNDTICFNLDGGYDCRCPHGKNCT
For the molecule B10, the Kd in the data set with mRobo3 FN1-3 was at least 100000 nM.

B11: hNELL2 EGF1-6 (His-tagged) (domain or fragment)
chain: not shown
notes: human NELL2, EGF domains 1-6, G397-T637; also called NELL2EGF1-6 (Polyhedrin, human); source: High Five cells (baculovirus), purified (Ni-NTA, SEC)
In data set [5], B11 displayed a Kd of 579 nM.

B12: hNELL1 EGF1-3 (domain or fragment, human, UniProt Q92832 390-517, looked up)
chain: RGHNFCAEGPKCGENSECKNWNTKATCECKSGYISVQGDSAYCEDIDECAAKMHYCHANTVCVNLPGLYRCDCVPGYIRVDDFSCTEHDECGSGQHNCDENAICTNTVQGHSCTCKPGYVGNGTICRA
notes: human NELL1, EGF domains 1-3, R390-A517; also called NELL1EGF1-3 (Polyhedrin, human); source: High Five cells (baculovirus), purified (Ni-NTA, SEC)
For B12, the values for the Kd in data set [3] and in data set [4] were 460 nM and 2710 nM, respectively.

B13: mNELL2 EGF1-6 L498A/F500A (domain or fragment)
chain: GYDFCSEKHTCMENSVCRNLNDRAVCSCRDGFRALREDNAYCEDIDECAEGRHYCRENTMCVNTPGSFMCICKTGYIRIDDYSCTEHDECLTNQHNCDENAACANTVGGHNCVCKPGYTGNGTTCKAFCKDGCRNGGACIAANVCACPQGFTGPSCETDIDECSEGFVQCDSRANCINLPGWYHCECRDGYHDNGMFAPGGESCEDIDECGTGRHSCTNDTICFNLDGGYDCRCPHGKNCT
With B13, the Kd with mRobo3 FN1-3 was at least 100000 nM.

B14: mouse NELL1 (ligand, UniProt Q2VWQ2 22-810, looked up)
chain: FGMDPDLQMDIITELDLVNTTLGVTQVAGLHNASKAFLFQDVQREIHSAPHVSEKLIQLFRNKSEFTFLATVQQKPSTSGVILSIRELEHSYFELESSGPREEIRYHYIHGGKPRTEALPYRMADGQWHKVALSVSASHLLLHVDCNRIYERVIDPPETNLPPGSNLWLGQRNQKHGFFKGIIQDGKIIFMPNGFITQCPNLNRTCPTCSDFLSLVQGIMDLQELLAKMTAKLNYAETRLGQLENCHCEKTCQVSGLLYRDQDSWVDGDNCRNCTCKSGAVECRRMSCPPLNCSPDSLPVHISGQCCKVCRPKCIYGGKVLAEGQRILTKTCRECRGGVLVKITEACPPLNCSEKDHILPENQCCRVCRGHNFCAEAPKCGENSECKNWNTKATCECKNGYISVQGNSAYCEDIDECAAKMHYCHANTVCVNLPGLYRCDCIPGYIRVDDFSCTEHDDCGSGQHNCDKNAICTNTVQGHSCTCQPGYVGNGTVCKAFCEEGCRYGGTCVAPNKCVCPSGFTGSHCEKDIDECAEGFVECHNHSRCVNLPGWYHCECRSGFHDDGTYSLSGESCIDIDECALRTHTCWNDSACINLAGGFDCLCPSGPSCSGDCPHEGGLKHNGQVWILREDRCSVCSCKDGKIFCRRTACDCQNPNVDLFCCPECDTRVTSQCLDQSGQKLYRSGDNWTHSCQQCRCLEGEADCWPLACPSLSCEYTAIFEGECCPRCVSDPCLADNIAYDIRKTCLDSSGISRLSGAVWTMAGSPCTTCQCKNGRVCCSVDLVCLENN
notes: NELL1, mouse; the methods say that mature domains were cloned into pAcGP67A; Trimer by MALS; also called mNELL1; source: High Five cells (baculovirus), secreted, purified (Ni-NTA, SEC)
In the case of B14, the “stoichiometry N” value in data set [6] stood at 3.

B15: full-length human NELL2 (ligand, UniProt Q99435 22-816, looked up)
chain: LGVDPSLQIDVLTELELGESTTGVRQVPGLHNGTKAFLFQDTPRSIKASTATAEQFFQKLRNKHEFTILVTLKQTHLNSGVILSIHHLDHRYLELESSGHRNEVRLHYRSGSHRPHTEVFPYILADDKWHKLSLAISASHLILHIDCNKIYERVVEKPSTDLPLGTTFWLGQRNNAHGYFKGIMQDVQLLVMPQGFIAQCPDLNRTCPTCNDFHGLVQKIMELQDILAKTSAKLSRAEQRMNRLDQCYCERTCTMKGTTYREFESWIDGCKNCTCLNGTIQCETLICPNPDCPLKSALAYVDGKCCKECKSICQFQGRTYFEGERNTVYSSSGVCVLYECKDQTMKLVESSGCPALDCPESHQITLSHSCCKVCKGYDFCSERHNCMENSICRNLNDRAVCSCRDGFRALREDNAYCEDIDECAEGRHYCRENTMCVNTPGSFMCICKTGYIRIDDYSCTEHDECITNQHNCDENALCFNTVGGHNCVCKPGYTGNGTTCKAFCKDGCRNGGACIAANVCACPQGFTGPSCETDIDECSDGFVQCDSRANCINLPGWYHCECRDGYHDNGMFSPSGESCEDIDECGTGRHSCANDTICFNLDGGYDCRCPHGKNCTGDCIHDGKVKHNGQIWVLENDRCSVCSCQNGFVMCRRMVCDCENPTVDLFCCPECDPRLSSQCLHQNGETLYNSGDTWVQNCQQCRCLQGEVDCWPLPCPDVECEFSILPENECCPRCVTDPCQADTIRNDITKTCLDEMNVVRFTGSSWIKHGTECTLCQCKNGHICCSVDPQCLQEL
notes: NELL2, human; called full-length; the methods say that mature domains were cloned into pAcGP67A; Trimer by MALS and SAXS; also called hNELL2; full-length hNELL2; source: High Five cells (baculovirus), secreted, purified (Ni-NTA, SEC)
Take B15: the “stoichiometry N” value in data set [6] is 3.
